Experimental findings from the nanobody polyreactivity screen of Harvey et al. (2022) are described below.

The data set can be described thus: yeast display, Sf9 membrane polyspecificity reagent, FACS + sequencing; frameworks hold sequencing errors. Summed up:
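A nanobody's polyreactivity label depends on the gate it was sorted from. Yeast display cells were stained with 10% biotinylated, detergent-solubilized Sf9 membrane reagent for 1 hour at 4 °C, enriched on streptavidin microbeads and sorted by FACS. The low and high (top ~1%) gates were set on anti-HA fluorescence for expression and streptavidin fluorescence for reagent binding.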
Turning to “QVQLVESGGGLVQAGGSLRLSCAASGSTSPGYAMGWYRQAPWKERELVAAITFRGTRTYYADSVKGRFTISRDNSKNTVYLQMNSLKPEDTEVYYCNVVGYGPNRGRVDYWGQGTLVTVSS”, the “polyreactivity (PSR sort gate)” value is “high polyreactivity”.

With “QVQLVESGGGLVQAGGSLRLICAASGIIFAYYAMGWYRQSPGKERELVAAITWSGGRTYYADSVKGRFTISRDNAKNTVYLQMNSLKPEDTSVYYCAARFTRQMYYWGQGTQVTVSS”, the “polyreactivity (PSR sort gate)” value was “high polyreactivity”. Consider “QVQLVESGGGLVQAGGSLRLSCAASGNTYLNAMGWYRQAPGKERELVAAISKGGADTYYADSVKGRFTISRDNAKNTVYLQMNSLKPEDTAVYYCAADGYADGWWVEYPWTYDYWGQGTQVTVSS”, for which the “polyreactivity (PSR sort gate)” value is recorded as “low polyreactivity”. Next, “QVQLVESGGGLVQAGGSLRLSCAASGRIFWSYAMGWYRQAPGKERELVAAITWRTGRTYYADSVKGRFTISRDNAKNTVYLQMNSLKPEDTAVYYCAAEGYLWGQSYNGLNYDSWGQGTQVTVSS”: “low polyreactivity”; “QVQLVESGGGLVQAGGSLRLSCAASGSIFSLYVMGWYRQAPGKERELGAAITSGGRTNYADSVKGRFTISRDNAKNTVYLLMNSLKPEDTAVYDCAARFPSRYGRYGYWGQGTQVTVSS”: “high polyreactivity”; “QVQLQESGGGLVQVGGSLRLSCAASGTIFIYGFLGWNRQAPGKERDLVASINLGGITNYADSVKGRFTISRDNAKITVYLQMNSLKPEDTAVYYCAADGGESAWGGYDYWGQGTQGTVSS”: “low polyreactivity”. On to “QVQLVESGGGLVQAGGSLRLSCAASGRTFPYNAMGWYIQAPGKERELVAAISSGGSTNYADSVKGRFTISRDNAKNTVYLQMNSLKPEDTAVYYCAVTGWPRYTWYSYGYWGQGTQVTVSS”, for which the “polyreactivity (PSR sort gate)” value is “low polyreactivity”. For “QVQLVESGGGLVHEGGSLRLSFAASGPTFYRYTMGWYRQAPGKERELVATITGGGSTNYADSVKGRFTISRDNAKNTVYLQMNSLKPEDTAVYYCARAVVQSRGPPRYKTPYDYWGQGTQVTVSS” the value was “low polyreactivity”. For “QVQLVESGGGLVQAGGRLRLSCAASGINLGRYAMGWYRQAPGKERELVASISWSGGSTYYADSVKGRFTISRDNAKNTVYLQMNSLIPEDPAVYYCAATYWKSRYGVRGYPFGYWGQGTQVTVSS” the value was “high polyreactivity”; for “QVQLVESGGGLVQGGGSLRLSCAASGITFCQYAMRWYRQAPGKERELVAGIRFSGSTTYYADSVKGRFTISRDYAKITVYLQMNSLKPEDTAVYDCNVDYYSGLYYYDSWGQGTQVTVSS”, “low polyreactivity”. For the sequence “QVQLVESGGGLVQAGGSLRLSCAPSGFIITYFGMGWYRQAPGKERELVAAISSRGGSTYYADSVKGRFTISRDTAKNTVYLQMNSLKPEDTAVYYFNTDSYRWTFSNRRYDYWGQGTQVTVSS”, the “polyreactivity (PSR sort gate)” value was “high polyreactivity”. With “QVQLVESGGGLVQAGGSLRLSCAASGSIFEPYVMGWYRQAPGKERELVAAIRQTGGSTYYADSVKGRFTISRDNAKNTVYLQMNSLKPEDTAVYYCAAVYLYYSRSDLYDYWGQGTQVTVSS”, the “polyreactivity (PSR sort gate)” value is recorded as “low polyreactivity”.

Turning to “QVQLVESGGGLVQAGGSLRLSCAASGRTFGKYAMGWYTQAPGKEREFVAAISWSGATTRYADSVKGRFTISRDNAKNTVYLQMNSLKPEDTAVYYCAATYYYVYGYRGDYWGQGTQVTVSS”, the “polyreactivity (PSR sort gate)” value is reported as “high polyreactivity”.

“QVQLQESGGGLVQAGGSLCLSCAASSYFSTYYSMGSYRKAPSKGRELVAAIDSGSSTNYADSVEGRFTISRDNAKNTVYLQMNSLKPGDTAVYYCAARDDARRGFYYWGQGTQVTVSS”: the “polyreactivity (PSR sort gate)” value is given as “high polyreactivity”. For “QVQLVESGGGLVQAGGSLRLSCAASGSIFSPYAMGWYRQAPGKARELVAVITRSGGRTYYADSVKGRFTISRDNAKNTVYLQMNSLKPEDTAVYYCAATPKSWSSSTRDYWGQGTQVTVSS” the value was “high polyreactivity”; for “QVQLVESGGGLVQAGGSLRLSCAASGSTFWFNAMGWYRQAPGKERELVAAISGRGGNTYYADSVKGRFTISRVNAKNTVYLQMYSLKPEDTAVYYCNAVYLYAYRVRYYYGRYDYWGQGTQVTVSS”, “high polyreactivity”; for “QVQLVESGGGLVQAGGRLRLSCAASGRIFIRNAMGWYRQAPGKERELVAAIDSVGSTYYADSVKGRFTISRDNAKNTVYLQMNSLKPEDTAVYYCAARGWKYASPYWRYYYWGQGTQVTVSS”, “low polyreactivity”.

On to “QVQLVESGGGLVQAGGSLRLSCAASGFTFSYYAKGWYRQAPGKERELVAVISDRGGITYYADSVKGRFTISRDNAKNTVYLQMNSLKPEDTAVYYCAAQNPRYNDRYYYWGQGTQVTVSS”, for which the “polyreactivity (PSR sort gate)” value is “low polyreactivity”. For “QVQLVESGGGLVQAGGSLRLSCAASGFIFGRYAMGWYRQAPGKERELVAAISSGDDTDYADSVKGRFTISRYNAKNTVYLLMNSLIPEDTAVYYCARSRFWSPVNYRRTIEFDSWGQGTQVTVSS” the value was “low polyreactivity”; for “QDQLVESGGGLVQAGGSLRLSCAASVSTFVNYAMGWYRQAPGKEMELVAAMSWSGGSTYYADSVKGRFTISRDNAKNTVYLQMNSLKPEDTAVYYCAVYAYWRFRTYYYWGQGTQVTVSA”, “high polyreactivity”. For the sequence “QVQLVESGGGLVQAGGSLRLSCAASGSIFGGYAMGWYRQAPGKERELVADISGSGGGTYYADSVKGRFTISRDNAKNTVYLQMNSLKPEDTAVYYCARRPRTYKHWFGYWGQGTQVTVSS”, the “polyreactivity (PSR sort gate)” value is reported as “low polyreactivity”. As to “QVQLVESGGGLFQAGGSLRLSCAASGSIFGYYAMGWYIQAPGKERELVARISYSGGTTYYADSVKGRFTISRDNAKNTVYLQMNSLKPEDTAVYYCNARIPYSWRYGYWGQGTQVTVSS”, the “polyreactivity (PSR sort gate)” value is recorded as “high polyreactivity”.

Consider “QVQLVDSGGGLVQAGGSLRLSCAASGRISNYYAMGWYRQAPGKERELVAAITRSGGSTYYADSVKGRFTISRDNAKNTVYLQMNSLKPEDTAVYYCATDWTVRYDYWGQGTQVTVSS”, for which the “polyreactivity (PSR sort gate)” value is reported as “high polyreactivity”.

With “QVQLVESGGGLVQAGGSLRISCAASGFSCRQYAMGWYRQAPGKERELVAAISSSGGRTYYADSVKGRFTISRDNAKNTVYLQMNSLKPEDTAVYYCIARAWLRVEYGEGYWGQGTQVTVSS”, the “polyreactivity (PSR sort gate)” value is “high polyreactivity”. “QVQLVESGGGLVQAGGSLRLSCAASGRTFRANAMEWYRQAPGKEREFVAVISLSGGGTYADSVKGRFTISRDNAKNTVYLQMNSLKPEDTAVYYCNRVPRRREYFHSNYLALFDYWGQGTQVTVSW”: the “polyreactivity (PSR sort gate)” value is “low polyreactivity”. With “QVQLVESGGGLVQAGGSLRLSCAASGYIFYIYAKGWNRQAPGKERELVAAISYSDGTTYYADSVKGRFTISRDNAKNTVYLQMNSLKAEDTAVYYCAADLWVGLVSLWDGYVEYDYWGQGTQVTVSS”, the “polyreactivity (PSR sort gate)” value is “low polyreactivity”. Regarding “QVQLVESGGGLVQAGGSLRLSCAASGFTFISYAMGWYSQAPGQERELVAAISSTGGSTYYADSVKGRFTSSRDTAKKTVYLQMNSLKPEETAVYYCNAVYWYTSEYDYWGQGTQVTVSS”, the “polyreactivity (PSR sort gate)” value is reported as “high polyreactivity”. For “QVQLVDSGGGLVQAGGSLRLSCAASGRTSYENAMGWYREAPGKERELVAAINVSGGSTYYADSVKGRFTISRDNAKNTVYLQMNSLKPEDTAVYYCAADNPYADARSSWYEYNDWGQGTQVTVSS” the value was “high polyreactivity”; for “QVQLVESGGGLVQAGGSLRLSCAASGSIFPHYAMGWYRQAPGKERELVAAISRSGTSTYYADSVKGRFTISRDNAKNTVYLQMNSLKPEDTAVYYCAAGYWFSYSRVTRYDYWGQGTQVTVSS”, “high polyreactivity”; for “QVQLVESGGGLVQAGGSLRLSCAASGFTFGWYDMGWYRQAPGKERELVASISWSGSSTYYADSVKGRFTISRDNAKNTVYLQMNSLKPEDTAVYYCATPYWRRYDYWGQGTQVTVSS”, “high polyreactivity”. On to “QVQLVEAGGGLVQAGGSLRLTCAASGPIFLSKAMGWYRQAPGTERELVAAINSGGNTDYADSVKARFTISRDNEKNTFYLQMNSLKPEDTAVYYCAADAFSWDHDYWGQGTQVTVSS”, for which the “polyreactivity (PSR sort gate)” value is “low polyreactivity”.

Take “QVQLVETGGGLVQAGGSLRLSCAASGYNLNSNAMGWYRQAPGKEREFVASITESGGTTYYADSVKGRFTISRDNAKNTVYLQMNSLKPEDTAVYYCAADLVDWWYSSDLYDYWGQGTQVTVSS”: the “polyreactivity (PSR sort gate)” value is on record as “high polyreactivity”. Take “QVQLVESGGGLVQAGGSLRLSCGASGRTFPVYAMGWYRQAPGKERELVADISDGGSTNYADSVKGRFTISRDNAKNTVDLQMNSLKPEDTAVYYCNATTFAFSPSLKGAYGYWGQGTQVTVST”: the “polyreactivity (PSR sort gate)” value is “low polyreactivity”. For “QVQLVESGGGLVQAGGSLRLSCAASGIIFPYYAMGWYRQAPGKESELVAAISQSGGSTYYADSVKGRFTISRDNAKNTVFFQMNSVKPEDTAVYYCDKFIPSYHDGDYWGQGTQVTVSS” the value was “low polyreactivity”. With “QVQLVESGGGLVQAGGSLRLSCAASGSNLPYYAMGWYRQAPVKERELVAAISYSGGSTYYADSVKGRFTISRDNAKNPVFLQMYSLKPEVTAVYDCNAVVRSPAHGFWGQCTQVTVSS”, the “polyreactivity (PSR sort gate)” value is “high polyreactivity”. Take “QVQLVESGGGLVQAGGSLRLSCAASGRTVGVYAMGWYRQAPGKERELVATITSGASTNYADSVKARFTISRDNAKNTVYLQMTSLKPEDTAVYYCNARRVAYASYSHPRVLDDYWGQGTQVTVST”: the “polyreactivity (PSR sort gate)” value is reported as “low polyreactivity”.

As for “LVQLVESGGGLVQAGGSLRLSCAASGNIFYWYAMGWYRQAPRKEREFVAAITRSGGSTSYADSVKGRFTISRDNAKNTVYLQMNSLKPEDTAVYYCNATHWVHFQEFYSWGQGTQVTVSS”, the “polyreactivity (PSR sort gate)” value is listed as “low polyreactivity”. For the sequence “QVQLVESGGGLVQAGGSLRLSCAASGSTFTWNAMGWYRQAPGKERELVASITWGGGGTYYADSVKGRFTISRDNAKNTVYLQMNSLKPEDTAVYYCAAGLWSPAYRGGYYYWGQGTQVTVSS”, the “polyreactivity (PSR sort gate)” value is given as “low polyreactivity”. For “QVQLVESGGGVVQAGGSLRLSCAASGRICAYYTMGWYRQAPGKERELVAAINQSGGSTYYADSVKGRFTISRDNAKYTEYLQMNSLKPEDTAVFYCAAQPTIYSTPHPEYNYWGQGTQVNVSS” the value was “low polyreactivity”.

As to “QVQLVESGGGLVQAGGSLRLSCAASGSIFQYNAMGWYRQEPGKERELVATITYIGGRTYYAYSVKGRFTISRDNAKNTVYLQMNSLKPEDTAVYYCAAEYYVISSPSFYEYDYWGQGTQVTVSS”, the “polyreactivity (PSR sort gate)” value was “low polyreactivity”.
